Patent publication US20260232827A1 (Zymeworks, published 2026)

T1: human FcγR IIA H131 CD32aH (v5774) (human, UniProt P12318 34-217, limits assumed)
T1 construct: In-house reagent
T1 sequence (looked up): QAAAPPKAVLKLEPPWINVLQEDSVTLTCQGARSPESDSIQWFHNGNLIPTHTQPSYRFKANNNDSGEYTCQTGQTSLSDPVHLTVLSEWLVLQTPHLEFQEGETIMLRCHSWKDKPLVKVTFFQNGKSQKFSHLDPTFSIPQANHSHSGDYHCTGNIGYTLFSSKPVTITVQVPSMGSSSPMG

T2: human FcγR IIB Y160 CD32bY (v5777) (human, UniProt P31994 43-217, limits assumed)
T2 construct: In-house reagent
T2 sequence (looked up): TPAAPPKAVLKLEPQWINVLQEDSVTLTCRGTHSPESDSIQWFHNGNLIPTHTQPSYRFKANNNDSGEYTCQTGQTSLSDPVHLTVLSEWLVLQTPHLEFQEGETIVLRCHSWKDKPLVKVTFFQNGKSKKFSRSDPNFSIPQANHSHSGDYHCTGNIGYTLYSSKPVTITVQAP

T3: human NaPi2b (sodium-dependent phosphate transporter 2B) (human, UniProt O95436 1-690)
T3 construct: Endogenous NaPi2b on the human tumor cell lines IGROV-1, HCC-78, H441 and H1781; also called hNaPi2b; SLC34A2
T3 sequence: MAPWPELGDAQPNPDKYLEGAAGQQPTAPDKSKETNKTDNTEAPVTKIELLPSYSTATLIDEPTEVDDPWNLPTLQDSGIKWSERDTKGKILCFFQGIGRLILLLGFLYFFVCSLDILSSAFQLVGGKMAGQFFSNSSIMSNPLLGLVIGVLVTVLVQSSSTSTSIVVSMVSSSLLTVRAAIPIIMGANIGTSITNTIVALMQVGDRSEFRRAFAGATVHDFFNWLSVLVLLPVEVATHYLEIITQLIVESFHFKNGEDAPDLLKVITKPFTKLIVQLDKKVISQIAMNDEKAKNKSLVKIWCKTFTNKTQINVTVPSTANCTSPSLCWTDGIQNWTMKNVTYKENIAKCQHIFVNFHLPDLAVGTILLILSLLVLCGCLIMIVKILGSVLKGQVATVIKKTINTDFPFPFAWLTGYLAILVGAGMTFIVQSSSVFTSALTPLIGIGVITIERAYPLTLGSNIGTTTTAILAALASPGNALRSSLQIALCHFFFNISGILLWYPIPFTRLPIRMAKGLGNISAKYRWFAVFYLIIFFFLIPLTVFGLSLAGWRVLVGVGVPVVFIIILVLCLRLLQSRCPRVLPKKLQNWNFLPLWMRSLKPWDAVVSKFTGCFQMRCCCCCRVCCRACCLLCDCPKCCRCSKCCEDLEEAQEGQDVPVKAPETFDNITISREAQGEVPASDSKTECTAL

T4: human sodium-dependent phosphate transporter 2B (NaPi2b) (human, UniProt O95436 1-690)
T4 construct: UniProt ID is given as 095436 [sic]; also called hNaPi2b; Hu NaPi2b
T4 sequence: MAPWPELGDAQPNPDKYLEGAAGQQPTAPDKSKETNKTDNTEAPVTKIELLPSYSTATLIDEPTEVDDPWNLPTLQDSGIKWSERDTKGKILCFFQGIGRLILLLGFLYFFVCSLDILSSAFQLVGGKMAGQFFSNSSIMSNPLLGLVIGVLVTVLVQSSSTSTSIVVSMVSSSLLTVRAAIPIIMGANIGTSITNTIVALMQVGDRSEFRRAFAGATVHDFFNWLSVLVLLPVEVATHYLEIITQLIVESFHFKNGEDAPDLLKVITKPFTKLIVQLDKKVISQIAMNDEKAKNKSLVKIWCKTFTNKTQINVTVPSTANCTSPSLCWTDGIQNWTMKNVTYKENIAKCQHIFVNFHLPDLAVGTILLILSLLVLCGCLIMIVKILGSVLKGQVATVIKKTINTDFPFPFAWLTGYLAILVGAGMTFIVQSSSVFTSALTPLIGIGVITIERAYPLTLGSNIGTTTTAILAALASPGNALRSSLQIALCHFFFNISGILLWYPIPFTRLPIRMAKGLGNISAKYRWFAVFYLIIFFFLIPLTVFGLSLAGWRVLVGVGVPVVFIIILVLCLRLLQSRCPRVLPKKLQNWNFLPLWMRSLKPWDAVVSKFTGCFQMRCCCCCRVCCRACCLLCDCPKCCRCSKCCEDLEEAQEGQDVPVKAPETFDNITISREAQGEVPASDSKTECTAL


Legend:
[1] = target: T5, Biotinylated human FcRn (human, UniProt P55899 24-297; P61769 21-119, limits assumed, biotinylated (site not stated)); assay: SPR (Biacore T200), biotinylated FcRn on neutravidin, antibody as analyte, pH 5.9, steady-state fit
T5 construct: also called Biotinlated human FcRn; human neonatal fragment crystallizable receptor (FcRn)

[2] = target: T1, human FcγR IIA H131 CD32aH (v5774); assay: SPR (Biacore T200), antibody captured on protein A, FcγR as analyte, single-cycle, steady-state fit;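 further: five FcγR concentrations per single cycle, 40 s association then 120 s dissociation, responses corrected against a reference flow cell and blank buffer injections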
Procedure: (§1) Approximately 400-600 RUs of each antibody (2 μg/mL) were captured on the protein A surface on flow cell 2, 3 and 4 by injecting at 10 μL/min for 60 s. Flow cell 1 was used as a reference surface. […] Each in-house FcγR with five concentrations were flowed as analyte using single-cycle kinetics strategy. The flow rate of FcγRs was 50 L/min with contact time of 40 sec and dissociation time of 120 sec. For the high affinity FcγRI CD64, multicycle kinetics were applied. The flow rate of the analyte was 100 L/min with contact time of 100 sec and dissociation time of 650 sec. Blank buffer control was injected using the same flow rate and contact time for each cycle. Surface regeneration was accomplished using 10 mM glycine-HCl, pH 1.5 (Cytiva©, BR100354) for 30 sec with a flow rate of 50 μL/min after each cycle. Binding constants and the maximum observed binding signal (Rmax) were determined using the Biacore™ T200 Evaluation software (version 3.0; GE Healthcare). For single-cycle kinetics, blank-subtracted sensorgrams were analyzed using steady state affinity fitting model. For multicycle kinetics, results were fit to the 1:1 Langmuir binding model.

[3] = target: T2, human FcγR IIB Y160 CD32bY (v5777); assay: as above
Procedure: as §1

[4] = target: T6, human FcγR IIIA F159 CD16aF (v5772) (human, UniProt P08637 17-208, limits assumed); assay: as above
T6 construct: In-house reagent
Procedure: as §1

[5] = target: T7, human FcγR I CD64 (Sino Biological Inc. 10256-H08H) (human, UniProt P12314 16-288); assay: SPR (Biacore T200), antibody captured on protein A, FcγR as analyte, multicycle, 1:1 fit
T7 construct: Bought reagent
Procedure: as §1

[6] = target: T3, human NaPi2b (sodium-dependent …); assay: flow cytometry on H441 cells (endogenous NaPi2b), 24 h at 4 C
Procedure: (§2) Cells were maintained under standard culture conditions (37° C./5% CO₂) until assay set-up. […] Cells were removed from culture vessels using Cell Dissociation Buffer (Invitrogen, Waltham, MA), seeded at 50,000 cells/well in conical-bottom 96-well plates, and treated with test antibody or antibody-drug conjugate for 24 hours at 4° C. to prevent internalization. […] Following incubation and washing, fluorescence was detected by flow cytometry on a BD LSRFortessa™ Cell Analyzer (BD Biosciences, Franklin Lake, NJ) with 1,000 minimum events collected per well.

[7] = target: T3, human NaPi2b (sodium-dependent …); assay: cell-based or functional assay
[8] = target: T3, human NaPi2b (sodium-dependent …); assay: cell-based or functional assay; remark: listed apart in the source
[9] = target: T3, human NaPi2b (sodium-dependent …); assay: flow cytometry on HCC-78 cells (endogenous NaPi2b), 24 h at 4 C
Procedure: as §2

[10] = target: T3, human NaPi2b (sodium-dependent …); assay: flow cytometry on IGROV-1 cells (endogenous NaPi2b), 24 h at 4 C
Procedure: as §2

[11] = target: T4, human sodium-dependent phosphate …; assay: flow cytometry on HCC-78 cells (endogenous NaPi2b), 24 h at 4 C, anti-human IgG Fc AF647, APC-A GeoMean
Procedure: as §2

[12] = target: T4, human sodium-dependent phosphate …; assay: flow cytometry on IGROV-1 cells (endogenous NaPi2b), 24 h at 4 C, anti-human IgG Fc AF647, APC-A GeoMean
[13] = target: T4, human sodium-dependent phosphate …; assay: flow cytometry on H441 cells (endogenous NaPi2b), 24 h at 4 C, anti-human IgG Fc AF647, APC-A GeoMean

T5 sequence (P55899 24-297 limits assumed, chain 1 of 2): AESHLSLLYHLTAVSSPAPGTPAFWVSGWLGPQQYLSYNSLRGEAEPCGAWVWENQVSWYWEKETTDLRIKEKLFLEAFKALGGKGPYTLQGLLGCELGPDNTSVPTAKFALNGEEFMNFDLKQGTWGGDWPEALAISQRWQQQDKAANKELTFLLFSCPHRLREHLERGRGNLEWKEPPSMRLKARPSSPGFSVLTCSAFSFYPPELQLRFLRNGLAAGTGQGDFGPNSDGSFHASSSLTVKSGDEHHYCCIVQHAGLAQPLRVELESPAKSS
T5 sequence (P61769 21-119 limits assumed, chain 2 of 2): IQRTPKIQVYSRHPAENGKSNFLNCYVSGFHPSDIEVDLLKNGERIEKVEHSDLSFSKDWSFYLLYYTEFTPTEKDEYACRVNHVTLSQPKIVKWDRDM
T7 sequence (P12314 16-288 limits assumed): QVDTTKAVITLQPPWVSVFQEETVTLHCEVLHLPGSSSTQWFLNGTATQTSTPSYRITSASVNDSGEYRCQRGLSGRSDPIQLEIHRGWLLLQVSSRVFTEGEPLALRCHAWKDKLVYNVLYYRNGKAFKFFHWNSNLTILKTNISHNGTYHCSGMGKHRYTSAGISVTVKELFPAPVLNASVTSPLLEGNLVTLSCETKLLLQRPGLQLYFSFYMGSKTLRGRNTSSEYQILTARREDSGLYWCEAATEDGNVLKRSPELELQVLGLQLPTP
T6 sequence (P08637 17-208 limits assumed): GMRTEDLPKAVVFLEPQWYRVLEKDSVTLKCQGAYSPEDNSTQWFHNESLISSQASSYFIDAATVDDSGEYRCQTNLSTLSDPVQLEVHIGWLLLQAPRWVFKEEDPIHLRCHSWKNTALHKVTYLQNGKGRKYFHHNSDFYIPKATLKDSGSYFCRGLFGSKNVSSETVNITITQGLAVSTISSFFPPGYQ

| Binder | Binding percentage [1] [%] | Kd [1] [nM] | Binding percentage [2] [%] | Kd [2] [nM] | Binding percentage [3] [%] | Kd [3] [nM] | Binding percentage [4] [%] | Kd [4] [nM] | Binding percentage [5] [%] | Bmax (MFI) [6] [MFI] | Kd [6] [nM] | Internalized Fluorescence Fold-Over Untreated, H441, 4 h, 2.5 nM [7] [fold] | Internalized Fluorescence Fold-Over Untreated, H441, 24 h, 2.5 nM [7] [fold] | Internalized Fluorescence Fold-Over Untreated, HCC-78, 4 h, 2.5 nM [7] [fold] | Internalized Fluorescence Fold-Over Untreated, HCC-78, 24 h, 2.5 nM [7] [fold] | Internalized Fluorescence Fold-Over Untreated, IGROV-1, 4 h, 2.5 nM [7] [fold] | Internalized Fluorescence Fold-Over Untreated, IGROV-1, 24 h, 2.5 nM [7] [fold] | EC50 (nM), in vitro cytotoxicity, H441 spheroids, 7 days [8] [nM] | EC50 (nM), in vitro cytotoxicity, H1781 spheroids, 7 days [8] [nM] | Bmax (MFI) [9] [MFI] | also measured |
| --- | --- | --- | --- | --- | --- | --- | --- | --- | --- | --- | --- | --- | --- | --- | --- | --- | --- | --- | --- | --- | --- |
| Lifastuzumab (v18993, wild-type Fc) (antibody, human IgG1, kappa, Two different heavy chains (heterodimeric Fc)) heavy 1: GEVQLVESGGGLVQPGGSLRLSCAASGFSFSDFAMSWVRQAPGKGLEWVATIGRVAFHTYYPDSMKGRFTISRDNSKNTLYLQMNSLRAEDTAVYYCARHRGFDVGHFDFWGQGTLVTVSSASTKGPSVFPLAPSSKSTSGGTAALGCLVKDYFPEPVTVSWNSGALTSGVHTFPAVLQSSGLYSLSSVVTVPSSSLGTQTYICNVNHKPSNTKVDKKVEPKSCDKTHTCPPCPAPELLGGPSVFLFPPKPKDTLMISRTPEVTCVVVDVSHEDPEVKFNWYVDGVEVHNAKTKPREEQYNSTYRVVSVLTVLHQDWLNGKEYKCKVSNKALPAPIEKTISKAKGQPREPQVYVYPPSRDELTKNQVSLTCLVKGFYPSDIAVEWESNGQPENNYKTTPPVLDSDGSFALVSKLTVDKSRWQQGNVFSCSVMHEALHNHYTQKSLSLSPG heavy 2: not shown light: GDIQMTQSPSSLSASVGDRVTITCRSSETLVHSSGNTYLEWYQQKPGKAPKLLIYRVSNRFSGVPSRFSGSGSGTDFTLTISSLQPEDFATYYCFQGSFNPLTFGQGTKVEIKRTVAAPSVFIFPPSDEQLKSGTASVVCLLNNFYPREAKVQWKVDNALQSGNSQESVTEQDSKDSTYSLSSTLTLSKADYEKHKVYACEVTHQGLSSPVTKSFNRGEC | 25.1 | 68.2 | 69.6 | 746 | 88.6 | 3740 | 71.5 | 2020 | 76.9 |  |  |  |  |  |  |  |  |  |  |  | Kd [5]: 0.0966 nM |
| v38591-MC-GGFG-AM-Compound 139 DAR 4 (antibody, human IgG1, kappa, drug-linker MC-GGFG-AM-Compound 139 on cysteines freed by TCEP reduction, DAR 4 over the whole antibody) heavy: not shown light: DVQMTQSPSSLSASVGDRVTITCRASQDVYSYLNWYQQKPGKAVKLLIYYTSRLQSGVPSRFSGSGSGTDYTLTISSLQPEDFATYYCQQYNIFPWTFGQGTKLEIKRTVAAPSVFIFPPSDEQLKSGTASVVCLLNNFYPREAKVQWKVDNALQSGNSQESVTEQDSKDSTYSLSSTLTLSKADYEKHKVYACEVTHQGLSSPVTKSFNRGEC |  |  |  |  |  |  |  |  |  | 521 | 0.74 | 1.2 | 2 | 5.6 | 35.9 | 7.1 | 26.6 | 9.85 | 0.95 | 7810 | Kd [9]: 1.07 nM; Bmax (MFI) [10]: 10500 MFI; Kd [10]: 0.82 nM |
| v40502 (LALADS) anti-NaPi2b antibody (antibody, human IgG1, kappa, L234A L235A, v38591 with L234A, L235A and D265S (EU) in the Fc) heavy: not shown light: DVQMTQSPSSLSASVGDRVTITCRASQDVYSYLNWYQQKPGKAVKLLIYYTSRLQSGVPSRFSGSGSGTDYTLTISSLQPEDFATYYCQQYNIFPWTFGQGTKLEIKRTVAAPSVFIFPPSDEQLKSGTASVVCLLNNFYPREAKVQWKVDNALQSGNSQESVTEQDSKDSTYSLSSTLTLSKADYEKHKVYACEVTHQGLSSPVTKSFNRGEC |  |  |  |  |  |  |  |  |  |  |  |  |  |  |  |  |  |  |  |  | EC50 (read off the curve) [11]: ~3 nM; EC50 (read off the curve) [12]: ~2 nM; EC50 (read off the curve) [13]: ~0.6 nM |
| v40502-MC-GGFG-AM-Compound 139 DAR 4 (antibody, human IgG1, kappa, L234A L235A, drug-linker MC-GGFG-AM-Compound 139 on cysteines freed by TCEP reduction, DAR 4 over the whole antibody) heavy: not shown light: DVQMTQSPSSLSASVGDRVTITCRASQDVYSYLNWYQQKPGKAVKLLIYYTSRLQSGVPSRFSGSGSGTDYTLTISSLQPEDFATYYCQQYNIFPWTFGQGTKLEIKRTVAAPSVFIFPPSDEQLKSGTASVVCLLNNFYPREAKVQWKVDNALQSGNSQESVTEQDSKDSTYSLSSTLTLSKADYEKHKVYACEVTHQGLSSPVTKSFNRGEC |  |  |  |  |  |  |  |  |  | 518 | 0.81 | 1.2 | 1.9 | 5.3 | 36.5 | 6.8 | 25.4 | 7.57 | 1.15 | 7770 | Kd [9]: 1.12 nM; Bmax (MFI) [10]: 10700 MFI; Kd [10]: 0.82 nM |
| Upifitamab (v40885, wild-type Fc) (antibody, human IgG1, kappa) heavy 1: GQVQLVQSGAEVVKPGASVKMSCKASGYTFTGYNIHWVKQAPGQGLEWIGAIYPGNGDTSYKQKFRGRATLTADTSTSTVYMELSSLRSEDSAVYYCARGETARATFAYWGQGTLVTVSSASTKGPSVFPLAPSSKSTSGGTAALGCLVKDYFPEPVTVSWNSGALTSGVHTFPAVLQSSGLYSLSSVVTVPSSSLGTQTYICNVNHKPSNTKVDKKVEPKSCDKTHTCPPCPAPELLGGPSVFLFPPKPKDTLMISRTPEVTCVVVDVSHEDPEVKFNWYVDGVEVHNAKTKPREEQYNSTYRVVSVLTVLHQDWLNGKEYKCKVSNKALPAPIEKTISKAKGQPREPQVYVYPPSRDELTKNQVSLTCLVKGFYPSDIAVEWESNGQPENNYKTTPPVLDSDGSFALVSKLTVDKSRWQQGNVFSCSVMHEALHNHYTQKSLSLSPG heavy 2: not shown light: GDIQMTQSPSSLSASVGDRVTITCSASQDIGNFLNWYQQKPGKTVKVLIYYTSSLYSGVPSRFSGSGSGTDYTLTISSLQPEDFATYYCQQYSKLPLTFGQGTKLELKRTVAAPSVFIFPPSDEQLKSGTASVVCLLNNFYPREAKVQWKVDNALQSGNSQESVTEQDSKDSTYSLSSTLTLSKADYEKHKVYACEVTHQGLSSPVTKSFNRGEC | 20.3 | 61.8 | 92.1 | 1010 | 121 | 5780 | 98.7 | 2380 | 97.7 |  |  |  |  |  |  |  |  |  |  |  |  |
